Patent US20050031628A1

How the values were obtained:
[1] = target: antigen binding receptors on maturing human monocyte-derived dendritic cells; assay: flow cytometry, maturing dendritic cells loaded with 10 µg/ml HBV S1/S2
[2] = target: antigen binding receptors on maturing human monocyte-derived dendritic cells; assay: flow cytometry, 90 µg/mL, 1 h at 4 C, dendritic cells of day 2 of culture, F(ab')2 goat anti-mouse Alexa-488
[3] = target: antigen binding receptors on maturing human monocyte-derived dendritic cells; assay: flow cytometry, 90 µg/mL, 1 h at 4 C, dendritic cells of day 1 of culture, F(ab')2 goat anti-mouse Alexa-488
[4] = target: antigen binding receptors on maturing human monocyte-derived dendritic cells; assay: flow cytometry, 90 µg/mL, 1 h at 4 C, dendritic cells of day 4 of culture, F(ab')2 goat anti-mouse Alexa-488
[5] = target: antigen binding receptors on maturing human monocyte-derived dendritic cells; assay: flow cytometry, 90 µg/mL, 1 h at 4 C, dendritic cells of day 3 of culture, F(ab')2 goat anti-mouse Alexa-488

| Substance | % Specific positive cells [1] | Relative MFI [1] | % Specific positive dendritic cells [2] | % Specific positive dendritic cells [3] | % Specific positive dendritic cells [4] | % Specific positive dendritic cells [5] |
| --- | --- | --- | --- | --- | --- | --- |
| HBV S1/S2 expressed in E. coli | 12.2% | 3.9 | – | – | – | – |
| HBV S1/S2 expressed in High Five insect cells (baculovirus) | 69.9% | 40.3 | – | – | – | – |
| murine IgG2a (G155-178) (antibody) | – | – | 17.4% | 28% | 13.5% | 14.3% |
